Interaction score data for four molecules are collected here from PMC10397247.

What all share (experiment): two-hybrid library CCmax;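 also: natural log of median RNA to DNA barcode read ratio; higher means stronger binding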
Test [1] deals with T1, 4H63-AA.
T1 chain: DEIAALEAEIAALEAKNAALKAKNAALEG
The note with it: mean of both orientations.

Test [2] has as its target T2, 4H483-AA.
T2 chain: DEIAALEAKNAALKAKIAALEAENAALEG

For test [3], the target named is T3, 4H3920-AA.
T3 chain: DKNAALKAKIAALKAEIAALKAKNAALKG

Test [4] concerns the target T4, 4H497-AA.
T4 chain: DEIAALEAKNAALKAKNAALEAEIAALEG
The note with it: mean of both orientations.

Test [5] concerns the target T5, 4H478-AA.
T5 chain: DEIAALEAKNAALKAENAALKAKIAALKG
The note with it: mean of both orientations.

Test [6] concerns the target T6, 4H971-AA.
T6 chain: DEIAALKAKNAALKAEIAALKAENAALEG
The conditions noted are these: mean of both orientations.

For test [7], the target named is T7, 4H656-AA.
T7 chain: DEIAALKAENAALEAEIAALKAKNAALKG
The conditions noted are these: mean of both orientations.

Test [8] deals with T8, 4H3939-AA.
T8 chain: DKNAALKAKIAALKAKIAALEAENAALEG
The note with it: mean of both orientations.

For test [9], the target named is T9, 4H675-AA.
T9 chain: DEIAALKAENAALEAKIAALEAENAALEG
The conditions noted are these: mean of both orientations.

Test [10] concerns the target T10, 4H428-AA.
T10 chain: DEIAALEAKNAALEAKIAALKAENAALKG
The conditions noted are these: mean of both orientations.

Test [11] concerns the target T11, 4H906-AA.
T11 chain: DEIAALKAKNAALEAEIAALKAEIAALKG
The note with it: mean of both orientations.

The target in test [12] is T12, 4H429-AA.
T12 chain: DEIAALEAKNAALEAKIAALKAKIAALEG
The conditions noted are these: mean of both orientations.

The target in test [13] is T13, 4H2949-AA.
T13 chain: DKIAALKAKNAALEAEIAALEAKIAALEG

Test [14] deals with T14, 4H3921-AA.
T14 chain: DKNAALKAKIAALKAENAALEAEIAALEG
The note with it: mean of both orientations.

In test [15] the target is T15, 4H566-AA.
T15 chain: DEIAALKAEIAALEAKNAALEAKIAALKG
The note with it: mean of both orientations.

Test [16] addresses T16, 4H794-AA.
T16 chain: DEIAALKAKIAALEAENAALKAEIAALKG

Test [17] addresses T17, 4H317-AA.
T17 chain: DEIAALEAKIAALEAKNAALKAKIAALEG
The conditions noted are these: mean of both orientations.

The target in test [18] is T18, 4H3844-AA.
T18 chain: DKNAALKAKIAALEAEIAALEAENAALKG
The note with it: mean of both orientations.

In test [19] the target is T19, 4H342-AA.
T19 chain: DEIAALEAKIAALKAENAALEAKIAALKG
The note with it: mean of both orientations.

Test [20] addresses T20, 4H780-AA.
T20 chain: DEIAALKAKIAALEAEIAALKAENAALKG
The note with it: mean of both orientations.

In test [21] the target is T21, 4H48-AA.
T21 chain: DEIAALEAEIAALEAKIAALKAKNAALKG
The conditions noted are these: mean of both orientations.

Test [22] addresses T22, 4H993-AA.
T22 chain: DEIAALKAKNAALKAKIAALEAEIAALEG
The note with it: mean of both orientations.

The target of test [23] is T23, 4H3627-AA.
T23 chain: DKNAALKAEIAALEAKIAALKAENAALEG
The note with it: mean of both orientations.

Test [24] addresses T24, 4H717-AA.
T24 chain: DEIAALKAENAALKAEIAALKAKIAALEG
The conditions noted are these: mean of both orientations.

Test [25] concerns the target T25, 4H605-AA.
T25 chain: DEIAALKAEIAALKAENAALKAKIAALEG
The conditions noted are these: mean of both orientations.

The target of test [26] is T26, 4H881-AA.
T26 chain: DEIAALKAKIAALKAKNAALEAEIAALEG
The conditions noted are these: mean of both orientations.

The target in test [27] is T27, 4H3606-AA.
T27 chain: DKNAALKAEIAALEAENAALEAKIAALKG
The note with it: mean of both orientations.

Test [28] has as its target T28, 4H678-AA.
T28 chain: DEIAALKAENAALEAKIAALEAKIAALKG
The note with it: mean of both orientations.

Test [29] addresses T29, 4H3427-AA.
T29 chain: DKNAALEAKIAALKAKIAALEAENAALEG
The conditions noted are these: mean of both orientations.

The target in test [30] is T30, 4H335-AA.
T30 chain: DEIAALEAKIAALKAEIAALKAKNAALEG
The note with it: mean of both orientations.

Test [31] deals with T31, 4H3112-AA.
T31 chain: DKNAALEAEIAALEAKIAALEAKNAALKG
The conditions noted are these: mean of both orientations.

Test [32] concerns the target T32, 4H454-AA.
T32 chain: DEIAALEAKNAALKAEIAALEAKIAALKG
The note with it: mean of both orientations.

For test [33], the target named is T33, 4H3343-AA.
T33 chain: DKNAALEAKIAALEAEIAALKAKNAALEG
The note with it: mean of both orientations.

Test [34] has as its target T34, 4H3655-AA.
T34 chain: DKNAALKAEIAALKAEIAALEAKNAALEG
The conditions noted are these: mean of both orientations.

Test [35] concerns the target T35, 4H3697-AA.
T35 chain: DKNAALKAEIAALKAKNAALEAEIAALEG
The conditions noted are these: mean of both orientations.

Test [36] deals with T36, 4H697-AA.
T36 chain: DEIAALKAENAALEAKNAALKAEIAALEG
The note with it: mean of both orientations.

Test [37] deals with T37, 4H3631-AA.
T37 chain: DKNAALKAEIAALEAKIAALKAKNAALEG

For test [38], the target named is T38, 4H3865-AA.
T38 chain: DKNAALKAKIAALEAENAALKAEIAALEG
The conditions noted are these: mean of both orientations.

The target of test [39] is T39, 4H982-AA.
T39 chain: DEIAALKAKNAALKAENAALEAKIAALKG
The conditions noted are these: mean of both orientations.

Test [40] deals with T40, 4H384-AA.
T40 chain: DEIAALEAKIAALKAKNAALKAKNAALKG
The note with it: mean of both orientations.

Test [41] concerns the target T41, 4H3718-AA.
T41 chain: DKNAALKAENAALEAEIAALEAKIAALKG
The conditions noted are these: mean of both orientations.

Regarding DEIAALEAKNAALKAKIAALEAENAALEG [4H483-AA], the interaction score is -1.11 in test [1] and -2.02 in [2].

Consider DKNAALKAKIAALKAEIAALKAKNAALKG [4H3920-AA], for which the interaction score in test [3] was -1.57; in test [4] it was -1.9; in test [5], -1.71; in test [6] it was -1.64; in test [7], -1.01; in [8], -0.87. For the same molecule, the interaction score is -1.22 in [9] and -0.945 in test [10].

Take DKIAALKAKNAALEAEIAALEAKIAALEG [4H2949-AA]: the interaction score is -1.01 in test [11]; 1.91 in test [12]; 1.3 in test [13]; 0.152 in test [14]; -0.649 in [15]; -1 in test [16]. In addition, the interaction score was 1.47 in test [17]; -1.79 in [18]; 0.399 in [19]; -1.49 in test [20]; -0.564 in test [21]; 1.65 in test [22]. For the same molecule, the interaction score is -1.38 in test [23]; -0.385 in [24]; -0.239 in [25]; 1.71 in [26]; -0.156 in test [27]; 1.69 in test [28]. In addition, the interaction score in [29] was -0.95; in [30], -0.276; in [31], -0.654; in test [32], 1.98; in test [33], -1.48; in test [34], -1.3.

For the molecule DKNAALKAEIAALEAKIAALKAKNAALEG [4H3631-AA], the interaction score in test [35] was -1.62; in test [36] it was -1.8; in test [37] it was 0.402; in [38], -1.53; in [39] it was -1.91; in test [40], -1.07. Also, the interaction score in test [41] was 0.0628.
